This is an account of results in patent US6340783.

Experiment [1] deals with beta-amyloid protein (BAP) residues 1-28, synthetic peptide (Homo sapiens (Human)) (UniProt P05067). Nature of the experiment: BAP (1-28) affinity column after heparitinase/heparinase digestion.
The target in experiment [2] is β/A4 (1-28) with three amino acid substitutions of the putative heparin binding domain (histidine, histidine and lysine changed to glycine) (UniProt P05067). Nature of the experiment: affinity column chromatography of 125I-HSPG, mutated versus normal β/A4 (1-28) column.
For experiment [3], the target named is beta-amyloid protein (BAP) residues 1-28, synthetic peptide (Homo sapiens (Human)) (UniProt P05067). Nature of the experiment: BAP (1-28) affinity column, no unlabeled competing ligand.
The target is the same in experiment [4]. The experiment in a line: competition with 125I-HSPG for binding to the BAP (1-28) affinity column.

beta-amyloid protein (BAP) residues 1-28, synthetic peptide (Homo sapiens (Human)), sequence (P05067 672-699 limits assumed): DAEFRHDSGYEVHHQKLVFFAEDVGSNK

As to “heparitinase/heparinase-digested 125I-labeled HSPG, A0AAA9TDR0 23-4401”, the percent still able to bind in comparison to undigested controls in experiment [1] turned out to be 61%.

“high Mr heparan sulfate proteoglycan (HSPG) isolated from the culture media of bovine aortic endothelial cells (from UniProt A0AAA9TDR0 23-4401)” registered a percent decrease in binding against normal β/A4 (1-28) in experiment [2] of 50 to 60%.

In experiment [3], “high Mr heparan sulfate proteoglycan (HSPG) isolated from the culture media of bovine aortic endothelial cells, A0AAA9TDR0 23-4401” registered a percent bound of 21.6%.

As to “low density heparan sulfate proteoglycan isolated from the mouse Engelbreth-Holm-Swarm (EHS) sarcoma (perlecan), Q05793 22-3707”, in experiment [4], the IC50 (in general, the point on the concentration scale where inhibition reaches its midpoint) is below 1000 nM.
